Target: SF2/ASF (ΔRS domain) (UniProt Q07955 1-196)
Experiment: EMSA

SF2/ASF (ΔRS domain), sequence (Q07955 1-196, stated change not applied): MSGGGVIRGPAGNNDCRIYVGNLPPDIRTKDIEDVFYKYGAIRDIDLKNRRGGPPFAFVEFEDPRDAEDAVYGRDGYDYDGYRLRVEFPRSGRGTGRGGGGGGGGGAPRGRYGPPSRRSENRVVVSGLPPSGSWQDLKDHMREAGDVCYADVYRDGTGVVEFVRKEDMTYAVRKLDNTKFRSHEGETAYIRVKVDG

B1: CD200 exon 2 RNA with wild-type ESE (ssRNA)
RNA: GUGAUCAGGAUGCCCUUCUC
  binding result: binds

— article PMC2965252
